Source: the supplement of paper PMC7125110
± gives the standard error. Variants at the floor of the assay were thinned out.

B1: glmS ribozyme (parent)
chain: AUAAAAGCGCCAGAACUACAGAAAUGUAGUUGACGAGGAGGAGGUUUAUCGAAUUUUCGGCGGAUGCCUCCAAA

Tests used:
Conditions in all cases: with glucosamine-6-phosphate
[1] = variants of: B1; test: self-cleavage kobs at 40 uM GlcN6P; higher = faster cleavage; RNA array
Summary of the method: (§1)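 Barcoded glmS ribozyme variants on sequenced MiSeq chips were transcribed in situ by E. coli RNA polymerase and tracked through a hybridised Cy3 probe at 37 °C. Glucosamine-6-phosphate (40 μM to 10 mM) in HEPES/KCl/Mg(OAc)2 buffer was flowed in, and tiles were imaged over ~14 h. Signals were normalised to baseline and to non-cleaving reference variants; per-tile medians were fit to one- or two-exponential decays to give kobs. kcat and KM came from weighted Michaelis–Menten fits across concentrations.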

[2] = variants of: B1; test: self-cleavage kobs at 160 uM GlcN6P; higher = faster cleavage; RNA array
Summary of the method: as §1

[3] = variants of: B1; test: self-cleavage kobs at 640 uM GlcN6P; higher = faster cleavage; RNA array
Summary of the method: as §1

[4] = variants of: B1; test: self-cleavage kobs at 2500 uM GlcN6P; higher = faster cleavage; RNA array
Summary of the method: as §1

[5] = variants of: B1; test: self-cleavage kobs at 10000 uM GlcN6P; higher = faster cleavage; RNA array
Summary of the method: as §1

| Variant | self-cleavage kobs at 40 uM GlcN6P [1] [s⁻¹] | self-cleavage kobs at 160 uM GlcN6P [2] [s⁻¹] | self-cleavage kobs at 640 uM GlcN6P [3] [s⁻¹] | self-cleavage kobs at 2500 uM GlcN6P [4] [s⁻¹] | self-cleavage kobs at 10000 uM GlcN6P [5] [s⁻¹] |
| --- | --- | --- | --- | --- | --- |
| AUAAAAGCGCCAGAACUACAGAAAUGUAGUUGACGAGGGGGAGGUUUAUCGAAUUUUCGGCGGAUGCCACCAAA [A39G U69A] | 8.49e-05 ± 1.6e-05 | 9.95e-05 ± 2.2e-05 | 0.000395 ± 6.6e-05 | 0.000452 ± 0.00012 | 0.000139 ± 2.2e-05 |
| AUAAAAGCGCCAGAACUACAGAAAUGUAGUUGAUGAGCAGGAGGUUUAUCGAAUUUUCGGCGGAUGCCUCCAAA [C34U G38C] | < 1e-05 | < 1e-05 | < 1e-05 |  | < 1e-05 |
| AUAAAAGCGCCACAACUACAGAAAUGUAGUUGACGAGGAGGAGGUUUAUCGAAUUUUCGGUGGAUGCCUCCAAA [G13C C61U] | < 1e-05 | < 1e-05 | < 1e-05 | < 1e-05 |  |
| AUAAAAGCGCCAGAACUACAGAAAUGUAGUUGACGAGGAGGGGGUUUAUCGAAUUUUCGGCGGAUGACUCCAAA [A42G C67A] | 0.000813 ± 0.00013 | 0.00197 ± 0.00067 | 0.008 ± 0.0032 | 0.00552 ± 0.0024 | 0.0213 ± 0.0053 |
| AUAAAAGCGCCAGAACUACAGAAAUGUAGUUGACGAGGAGGAGGUUUAUCUAGUUUUCGGCGGAUGCCUCCAAA [G51U A53G] | < 1e-05 | < 1e-05 | < 1e-05 | < 1e-05 |  |
| AUAAAAGCGCCACAACUACAGAAAUGUAGUUGACGAGGAGGAGGUUUAUCGCAUUUUCGGCUGAUGCCUCCAAA [G13C A52C G62U] | < 1e-05 |  |  |  | < 1e-05 |
| AUAAAAGCGCCUGAACUACAGAAAUGUAGUUGACGAGGAGGAGGUUUAUCCAAUUUUCGGCGGAUGCCUCCAAA [A12U G51C] | < 1e-05 | < 1e-05 | < 1e-05 | < 1e-05 |  |
| AUAAAAGCGCCAGAGCUACAGAAAUGUAGUUAACGAGGAGGAGGUUUAUCGAAUUUUCGGCGGAUGCCUCCAAA [A15G G32A] | 6.35e-05 ± 1.4e-05 | 0.000114 ± 2.3e-05 | 0.000628 ± 7.7e-05 | 0.00103 ± 0.00018 | 0.00311 ± 0.00077 |
| AUAAAAGCGCCAGAACUACAGAAAUGUAGUUGUCGAGGAGGAGGUUUAUCGAAUUUUCGGCGGAUGGCUUCAAA [A33U C67G C70U] | < 1e-05 |  |  |  |  |
| AUAAAAGCGCCAGAACUACAGAAAUGUAGGUGACGAGGGGGAGGUUUAUGGAAUUUUCGGCGGAUGCGUCCAAA [U30G A39G C50G C68G] | 0.00025 ± 6.5e-05 |  |  |  | 0.000218 ± 4.7e-05 |
| AUAAAAGCGCCAGAACUACAGAAAUGUAGUUGACGAGGACGAGGUUUAUCUAAUUUUCGGCGGAUGCCUCCAAA [G40C G51U] | < 1e-05 | < 1e-05 | < 1e-05 | < 1e-05 | < 1e-05 |
